According to US7109299B1, “Peptides and compounds that bind to the IL-5 receptor” (Affymax, Inc., priority 1999, dated 2006):
Bridge positions count the residues as written; N and C are the ends. Ends that are not written are not given here. Peptide text beside a SMILES is read from it. I, II: the chains in the order shown.

What was measured:
[1] = molecular target: T1, IL-5Rα ECD (Homo sapiens, UniProt Q01344); assay: biochemical
T1 sequence (Q01344 21-342 limits assumed): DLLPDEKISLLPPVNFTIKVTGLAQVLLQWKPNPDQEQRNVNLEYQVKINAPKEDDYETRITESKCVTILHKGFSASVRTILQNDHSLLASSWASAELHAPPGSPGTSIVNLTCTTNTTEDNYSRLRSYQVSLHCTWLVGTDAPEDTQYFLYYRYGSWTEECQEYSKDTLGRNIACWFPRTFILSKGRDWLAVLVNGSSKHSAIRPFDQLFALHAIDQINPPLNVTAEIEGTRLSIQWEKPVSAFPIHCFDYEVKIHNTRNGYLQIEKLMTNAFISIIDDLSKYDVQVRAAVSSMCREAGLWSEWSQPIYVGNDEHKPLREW
Procedure: Binding affinities of synthetic peptides for IL-5Rα were measured in a competition binding assay using radio-iodinated IL-5. Immulon 4 (Dynatech) microtiter wells were coated with streptavidin (Sigma) by incubating 100 μl of a 50 μg/ml solution in PBS for 30 min. at 37°. The wells were blocked with 200 μl of 1% BSA in PBS for 15 min. at 37°, followed by 100 μl of biotinylated monoclonal antibody, designated mAb 179, at 5 μg/ml in PBS. Soluble IL-5Rα was then immobilized in the wells by incubating 100 μl of a solution of soluble receptor harvest diluted 1:5000 in PBS/0.1% BSA for 1 hr. at 4°. After washing away unbound receptor, 50 μl of various concentrations of test peptide diluted in PBS/0.1% BSA were added to the wells, followed by 50 μl of a fixed concentration of [^125I] IL-5 (Amersham). The binding reactions were incubated at 4° C. for 2 hr, then washed with PBS to remove unbound [^125I] IL-5. Bound [^125I] IL-5 was determined by gamma counting. Total binding was defined by the amount of [^125I] IL-5 bound in the absence of any competitor. Non-specific binding was defined by the amount of [^125I] IL-5 bound in the presence of 30 nM IL-5. Peptide binding data was analyzed to determine the peptide concentration required to reduce specific [^125I] IL-5 binding by 50% (IC50).

[2] = molecular target: T2, native IL-5R α/β complex on TF-1 cells (Homo sapiens, UniProt Q01344); assay: competition binding of [125I] IL-5 to TF-1 cells; conditions: read-out: IC50, inhibition of binding of [125I] IL-5 to TF-1 cells
T2 construct: endogenous in cells; host or cells: TF-1 cells
T2 sequence (Q01344 21-420): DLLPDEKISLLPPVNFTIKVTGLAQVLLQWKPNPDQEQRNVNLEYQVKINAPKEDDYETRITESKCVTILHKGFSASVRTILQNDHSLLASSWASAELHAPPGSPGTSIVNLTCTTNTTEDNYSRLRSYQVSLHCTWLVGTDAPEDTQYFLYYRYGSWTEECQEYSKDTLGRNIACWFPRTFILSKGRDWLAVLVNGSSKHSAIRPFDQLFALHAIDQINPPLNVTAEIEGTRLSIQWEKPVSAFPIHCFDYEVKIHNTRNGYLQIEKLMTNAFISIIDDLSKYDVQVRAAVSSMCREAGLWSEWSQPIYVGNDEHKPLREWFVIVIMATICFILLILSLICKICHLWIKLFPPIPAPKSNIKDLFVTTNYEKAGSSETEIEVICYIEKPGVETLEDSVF
Procedure: The ability of AF18748 to bind to the native IL-5R α/β complex on TF-1 cells was assessed in a competition binding assay (as described in McKinnon et al., J. Exp. Med 186: 121 (1997)). The binding of [^125I]

[3] = system: human eosinophils; format: cell-based
Procedure: The functional activity of AF18748 was assessed in a human eosinophil adhesion assay (following the method of […], et al, Cytokine 8:248 (1996)). […] AF18748 is therefore a potent and selective antagonist of IL-5 in a human eosinophil functional assay.

[4] = molecular target: IL-5RαECD (Homo sapiens, UniProt Q01344); conditions: AF18748 over 10 pM to 1 nM; binding decreases above 1 nM
Procedure: A “sandwich” binding assay using microvolume fluorimetry (Martens et al., Anal. Biochem., 273:20 (1999)) was used to measure the ligand dependent association of two receptor proteins. IL-5RαECD (the extracellular domain (ECD) of the human IL-5 receptor a chain) was immobilized onto 10 μm beads and incubated with soluble, fluorescently labeled IL-5Rα ECD in the presence or absence of IL-5 or peptide.
Fluorescently labeled mAb 179 was prepared using Cy5 monofunctional reactive dye (Amersham) according to the manufacturer's instructions. (As disclosed in Martens et al., supra, Cy5.5 dye is also suitable.) Fluorescent mAb179:IL-5Rα ECD complexes were formed by preincubating the labeled antibody with an equimolar amount of receptor ECD in phosphate buffered saline (PBS) for 1 hr at room temperature. Mono A 10 μm polystyrene beads (Pharmacia) were coated first with biotinylated bovine serum albumin, then sequentially with streptavidin, biotinylated mAb179, and IL-5Rα ECD. […]
The binding reactions were incubated in microtiter plates overnight at room temperature, then microvolume fluorimetry measurements of bead-associated fluorescence were made using an FMAT instrument (Perkin-Elmer).

[5] = molecular target: T3, human IL-5 receptor (Homo sapiens, UniProt Q01344); conditions: HL60 subclone, sodium butyrate induced; read-out: Kd of IL-5 binding sites; cited from earlier work
T3 construct: host or cells: HL60 subclone induced towards eosinophil differentiation with sodium butyrate
T3 sequence (Q01344 21-420): T2 sequence (Q01344 21-420)
T3 sequence (P32927 17-897 partner): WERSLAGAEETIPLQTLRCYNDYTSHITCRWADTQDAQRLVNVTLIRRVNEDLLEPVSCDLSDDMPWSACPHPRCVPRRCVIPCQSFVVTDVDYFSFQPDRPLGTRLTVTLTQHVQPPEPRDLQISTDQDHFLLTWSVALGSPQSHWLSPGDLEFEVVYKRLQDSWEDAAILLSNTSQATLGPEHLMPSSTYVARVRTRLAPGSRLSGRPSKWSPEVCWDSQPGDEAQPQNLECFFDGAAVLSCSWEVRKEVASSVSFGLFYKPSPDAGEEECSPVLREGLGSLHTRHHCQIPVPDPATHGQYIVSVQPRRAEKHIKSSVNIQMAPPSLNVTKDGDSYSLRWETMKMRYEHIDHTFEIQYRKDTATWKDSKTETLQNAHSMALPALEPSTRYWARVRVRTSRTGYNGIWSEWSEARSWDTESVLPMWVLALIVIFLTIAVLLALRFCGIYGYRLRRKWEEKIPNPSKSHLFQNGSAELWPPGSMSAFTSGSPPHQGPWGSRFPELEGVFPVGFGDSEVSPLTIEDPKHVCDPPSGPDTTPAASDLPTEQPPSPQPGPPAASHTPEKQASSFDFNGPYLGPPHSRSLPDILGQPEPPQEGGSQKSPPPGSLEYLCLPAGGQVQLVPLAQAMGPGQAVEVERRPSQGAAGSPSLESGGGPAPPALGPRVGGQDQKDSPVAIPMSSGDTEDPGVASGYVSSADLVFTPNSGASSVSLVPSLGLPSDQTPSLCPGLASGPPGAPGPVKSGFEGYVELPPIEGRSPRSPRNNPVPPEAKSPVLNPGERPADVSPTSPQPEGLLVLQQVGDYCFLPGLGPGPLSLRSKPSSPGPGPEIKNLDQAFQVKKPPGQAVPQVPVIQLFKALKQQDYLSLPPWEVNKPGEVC

[6] = molecular target: T4, chimeric IL-5Rα/EGFR receptor (Homo sapiens, UniProt P00533+Q01344); assay: chimeric IL-5Rα/EGFR luciferase reporter cell assay in Ba/F3 cells; format: cell-based; conditions: for luciferase activity of Ba/F3 cells expressing the chimera: serial dilutions, 4 hr
T4 construct: A chimeric receptor consisting of the IL-5Rα ECD fused to the transmembrane spanning and intracellular domains; expressed in transfected cells; host or cells: Ba/F3 cells with c-fos enhancer/TK promoter luciferase reporter
Text: A system comprising a chimeric IL-5R-α/EGFR reported cell assay was designed to analyze receptor binding stoichiometry in a cellular context. A chimeric receptor consisting of the IL-5Rα ECD fused to the transmembrane spanning and intracellular domains of the epidermal growth factor receptor (EGFR) was constructed, and stably expressed in Ba/F3 cells that also contained a luciferase reporter gene under the transcriptional control of the c-fos enhancer and minimal thymidine kinase promoter.
In the assay, Ba/F3 cells expressing a chimeric IL-5Rα/EGFR receptor and containing a luciferase reporter gene were starved overnight of the WEHI conditioned medium in which they were maintained, then seeded into microtiter wells at a density of 10^5 cells/well. Following stimulation, the cells were incubated for 4 hr at 37° in a 5% CO2 incubator. LucLite reagent (Packard) was then added to the wells according to the manufacturer's instructions and the plates were assayed for luciferase activity by counting in a Topcount instrument (Packard). Data points represent mean±SEM for 3 separate experiments performed in triplicate. The data has been normalized to the stimulation induced by 1 μM AF18748 in each experiment.

[7] = molecular target: T1, IL-5Rα ECD; assay: gel filtration chromatography of IL-5Rα ECD with peptide; parameters: IL-5RαECD=ECD of the human IL-5 receptor a chain
Procedure: Secondly, the ability of peptides to induce receptor dimerization was studied using gel filtration chromatography. Gel filtration chromatography was performed on a Pharmacia Smart system using a Precision Superdex 200 3.2/30 column at 25° C. with a flow rate of 10 μl/min. The buffer was 50 mM Tris pH 7.5, 0.5 M NaCl. The column was calibrated using the Biorad Gel filtration molecular weight standards which contain Thyroglobulin, 670 KD; Bovine gamma globulin, 158 KD; Chicken ovalbumin, 44 KD; Equine myoglobin, 17 KD; Vitamin B12, 1.35 KD. […] Results shown are from a single experiment, representative of three separate runs for each condition.

[8] = IL-5Rα ECD with equimolar peptide, Superdex 200

T4 sequence (Q01344+P00533 fused, stated change not applied): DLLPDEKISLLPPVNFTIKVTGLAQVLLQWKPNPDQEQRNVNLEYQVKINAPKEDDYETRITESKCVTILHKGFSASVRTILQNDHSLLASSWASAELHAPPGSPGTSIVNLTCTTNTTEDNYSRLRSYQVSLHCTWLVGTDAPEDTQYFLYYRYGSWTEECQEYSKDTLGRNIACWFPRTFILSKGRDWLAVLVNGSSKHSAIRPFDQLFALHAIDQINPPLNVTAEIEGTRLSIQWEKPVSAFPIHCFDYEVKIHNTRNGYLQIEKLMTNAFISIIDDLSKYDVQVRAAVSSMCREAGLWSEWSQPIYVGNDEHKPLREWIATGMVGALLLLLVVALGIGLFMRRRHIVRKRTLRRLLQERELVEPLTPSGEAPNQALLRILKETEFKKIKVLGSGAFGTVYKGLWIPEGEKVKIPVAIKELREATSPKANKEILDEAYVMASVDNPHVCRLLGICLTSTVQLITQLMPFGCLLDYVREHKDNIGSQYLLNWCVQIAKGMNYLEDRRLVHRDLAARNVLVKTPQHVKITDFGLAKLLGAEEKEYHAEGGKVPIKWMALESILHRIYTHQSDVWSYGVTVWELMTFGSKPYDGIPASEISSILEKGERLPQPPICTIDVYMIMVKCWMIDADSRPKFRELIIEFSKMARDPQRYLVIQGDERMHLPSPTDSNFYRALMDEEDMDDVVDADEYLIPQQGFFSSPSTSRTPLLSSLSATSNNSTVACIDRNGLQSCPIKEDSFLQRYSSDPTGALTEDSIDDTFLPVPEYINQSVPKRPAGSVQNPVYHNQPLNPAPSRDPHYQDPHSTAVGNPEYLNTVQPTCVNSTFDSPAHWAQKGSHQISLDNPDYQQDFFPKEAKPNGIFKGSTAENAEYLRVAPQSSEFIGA

Compound: CC(C)[C@H](NC(=O)[C@H](CSSC[C@H](NC(=O)[C@@H](NC(=O)[C@H](Cc1ccc(O)cc1)NC(=O)CNC(=O)[C@H](CC(=O)O)NC(=O)CNC(=O)CNC(=O)CNC(=O)[C@@H](N)[C@@H](C)O)C(C)C)C(=O)N[C@H](C(=O)N[C@@H](CCC(=O)O)C(=O)N[C@@H](Cc1c[nH]c2ccccc12)C(=O)N[C@@H](C)C(=O)N[C@@H](CCCNC(=N)N)C(=O)N[C@H]1CSSC[C@@H](C(=O)N[C@@H](CCCCN)C(=O)O)NC(=O)[C@H]([C@@H](C)O)NC(=O)[C@@H]2CCCN2C1=O)C(C)C)NC(=O)[C@@H](NC(=O)[C@H](Cc1ccc(O)cc1)NC(=O)CNC(=O)[C@H](CC(=O)O)NC(=O)CNC(=O)CNC(=O)CNC(=O)[C@@H](N)[C@@H](C)O)C(C)C)C(=O)N[C@@H](CCC(=O)O)C(=O)N[C@@H](Cc1c[nH]c2ccccc12)C(=O)N[C@@H](C)C(=O)N[C@@H](CCCNC(=N)N)C(=O)N[C@H]1CSSC[C@@H](C(=O)N[C@@H](CCCCN)C(=O)O)NC(=O)[C@H]([C@@H](C)O)NC(=O)[C@@H]2CCCN2C1=O [AF18748] (I: H-TGGGDGYVCVEWARCPTCK-OH / II: H-TGGGDGYVCVEWARCPTCK-OH; disulfide I:9-II:9, I:15-I:18, II:15-II:18)
- IC50 [1]: 0.78 nM
- IC50 [2]: 0.4 ± 0.04 nM
- IC50 [3]: 0.348 ± 0.067 nM

Compound: IL-5: Interleukin 5, natural ligand, disulfide linked homodimer
- association of fluorescently labeled IL-5Rα ECD to IL-5RαECD-coated beads [4]: did not mediate receptor association
- Kd [5]: 0.03 nM
- basal level of luciferase expression in unstimulated cells [6]: reduced basal level of luciferase expression
- effect on activation of the luciferase reporter by AF18748 ([6]; 200 pM AF18748, increasing concentrations of IL-5): antagonized
- luciferase activity of Ba/F3 cells expressing the chimera [6]: no effect

Compound: VDECWRIIASHTWFCAEE (disulfide 4-15 (inferred)) [AF17121]
- Receptor State ([7]; IL-5Rα ECD with equimolar peptide): Monomer
- Calculated MW [7, 8]: 89.5 kDa
- Elution Volume [7, 8]: 1.425
- effect on elution / apparent size of IL-5Rα ECD ([7]; gel filtration): no effect on the elution of the receptor
- association of fluorescently labeled IL-5Rα ECD to IL-5RαECD-coated beads [4]: did not mediate the association of labeled receptor with the beads
- basal level of luciferase expression in unstimulated cells [6]: reduced basal level of luciferase expression
- luciferase activity of Ba/F3 cells expressing the chimera [6]: no effect
